Drawing on PMC10786891, “Massively parallel profiling of RNA-targeting CRISPR-Cas13d”, this text covers Kd for 30 molecules.

B1: target 1 G5C,C22U (mixed)
RNA 1: CACCCGUGCAAAAAUGCAGGGGUCUAAAACUGAGCGGAUAACCUCUCUAUGG
RNA 2: GGGAAUGGAUCCACAUCUACGAAUUCGUAUCAUAGAGAGGUUAUCCCCUCACCGAGAUCGGAAGAGCACACGU
B2: target 1 insU 3' of 12,insC 3' of 12 (mixed)
RNA 1: B1 RNA 1
RNA 2: GGGAAUGGAUCCACAUCUACGAAUUCGUACCAUAGAGAGGUCUUAUCCGCUCACCGAGAUCGGAAGAGCACACGU
B3: target 1 insG 3' of 19,insG 3' of 3 (mixed)
RNA 1: B1 RNA 1
RNA 2: GGGAAUGGAUCCACAUCUACGAAUUCGUACCAUGAGAGAGGUUAUCCGCUGCACCGAGAUCGGAAGAGCACACGU
B4: target 1 U8G,U11C (mixed)
RNA 1: B1 RNA 1
RNA 2: B1 RNA 2 with U30C, U41C, U44G, C47G
B5: target 1 insG 3' of 20,insG 3' of 3 (mixed)
RNA 1: B1 RNA 1
RNA 2: B3 RNA 2 with U33G, G34U
B6: target 3 insA 3' of 21,insC 3' of 21 (mixed)
RNA 1: CACCCGUGCAAAAUUGCAGGGGUCUAAAACGACCUGAAUAUUUCAGAUCAAA
RNA 2: GGGAAUGGAUCCACAUCUACGAAUUCGUUUUACUGAUCUGAAAUAUUCAGGUCUGCAGAUCGGAAGAGCACACGU
B7: target 3 G3C,A11G (mixed)
RNA 1: B6 RNA 1
RNA 2: GGGAAUGGAUCCACAUCUACGAAUUCGUUUUUGAUCUGAAGUAUUCAGCUCUGCAGAUCGGAAGAGCACACGU
B8: target 3 insC 3' of 12,insU 3' of 3 (mixed)
RNA 1: B6 RNA 1
RNA 2: GGGAAUGGAUCCACAUCUACGAAUUCGUUUUUGAUCUGAACAUAUUCAGGUUCUGCAGAUCGGAAGAGCACACGU
B9: target 3 A11G,A18G (mixed)
RNA 1: B6 RNA 1
RNA 2: B7 RNA 2 with A34G, C49G
B10: target 3 insU 3' of 11,insU 3' of 6 (mixed)
RNA 1: B6 RNA 1
RNA 2: B8 RNA 2 with C41A, A42U, A48U, G49A, U51G
B11: target 3 insU 3' of 3,insA 3' of 2 (mixed)
RNA 1: B6 RNA 1
RNA 2: B8 RNA 2 with C41A, A42U, U43A, A44U, U46C, C47A, A48G, G50U, U52A
B12: target 3 insC 3' of 3,insG 3' of 1 (mixed)
RNA 1: B6 RNA 1
RNA 2: GGGAAUGGAUCCACAUCUACGAAUUCGUUUUUGAUCUGAAAUAUUCAGGCUCGUGCAGAUCGGAAGAGCACACGU
B13: target 3 insG 3' of 9,insA 3' of 2 (mixed)
RNA 1: B6 RNA 1
RNA 2: B8 RNA 2 with C41A, A42U, U43A, A44G, U52A
B14: target 3 G4A,U22A (mixed)
RNA 1: B6 RNA 1
RNA 2: B7 RNA 2 with U30A, G41A, G48A, C49G
B15: target 3 C6U,A18G (mixed)
RNA 1: B6 RNA 1
RNA 2: B7 RNA 2 with A34G, G41A, C46U, C49G
B16: target 3 C1G,U7C (mixed)
RNA 1: B6 RNA 1
RNA 2: B7 RNA 2 with G41A, U45C, C49G, C51G
B17: target 3 del22 (mixed)
RNA 1: B6 RNA 1
RNA 2: GGGAAUGGAUCCACAUCUACGAAUUCGUUUUGAUCUGAAAUAUUCAGGUCUGCAGAUCGGAAGAGCACACGU
B18: target 3 insA 3' of 10,insC 3' of 10 (mixed)
RNA 1: B6 RNA 1
RNA 2: B8 RNA 2 with C41A, A42U, U43A, A44C, U45A, C47U, A48C, G49A, U51G
B19: target 3 insA 3' of 6,insA 3' of 6 (mixed)
RNA 1: B6 RNA 1
RNA 2: B12 RNA 2 with G48A, G49A, C50G, U51G, C52U, G53C
B20: target 3 insU 3' of 11,insC 3' of 3 (mixed)
RNA 1: B6 RNA 1
RNA 2: B8 RNA 2 with C41A, A42U, U51C
B21: target 3 C6G,U22C (mixed)
RNA 1: B6 RNA 1
RNA 2: B7 RNA 2 with U30C, G41A, C46G, C49G
B22: target 3 A5C,U7A (mixed)
RNA 1: B6 RNA 1
RNA 2: B7 RNA 2 with G41A, U45A, A47C, C49G
B23: target 3 insG 3' of 7,insC 3' of 2 (mixed)
RNA 1: B6 RNA 1
RNA 2: B12 RNA 2 with C46G, A47C, G48A, C50G, G53C
B24: target 3 G4A,U7G (mixed)
RNA 1: B6 RNA 1
RNA 2: B7 RNA 2 with G41A, U45G, G48A, C49G
B25: target 3 insG 3' of 5,insC 3' of 4 (mixed)
RNA 1: B6 RNA 1
RNA 2: B12 RNA 2 with U51G, C52U, G53C
B26: target 3 insU 3' of 13,insU 3' of 4 (mixed)
RNA 1: B6 RNA 1
RNA 2: B8 RNA 2 with A40U, C41A, G50U, U51G
B27: target 3 del1,del22 (mixed)
RNA 1: B6 RNA 1
RNA 2: GGGAAUGGAUCCACAUCUACGAAUUCGUUUUGAUCUGAAAUAUUCAGGUUGCAGAUCGGAAGAGCACACGU
B28: target 3 insG 3' of 7,insG 3' of 2 (mixed)
RNA 1: B6 RNA 1
RNA 2: B12 RNA 2 with C46G, A47C, G48A, C50G, C52G, G53C
B29: target 3 insU 3' of 16,insU 3' of 16 (mixed)
RNA 1: B6 RNA 1
RNA 2: B6 RNA 2 with A32U, C33G, U34A, G35U, A36C, C38U
B30: target 3 G4U,G19U (mixed)
RNA 1: B6 RNA 1
RNA 2: B7 RNA 2 with G33U, G41A, G48U, C49G

Where a chain is given by its changes, count along the chain named. Numbers in names are those of the source.

This series has as its target T1, EsCas13d, nuclease-dead (Eubacterium siraeum, UniProt B0MS50, R295A;H300A;R849A;H854A).
T1 sequence: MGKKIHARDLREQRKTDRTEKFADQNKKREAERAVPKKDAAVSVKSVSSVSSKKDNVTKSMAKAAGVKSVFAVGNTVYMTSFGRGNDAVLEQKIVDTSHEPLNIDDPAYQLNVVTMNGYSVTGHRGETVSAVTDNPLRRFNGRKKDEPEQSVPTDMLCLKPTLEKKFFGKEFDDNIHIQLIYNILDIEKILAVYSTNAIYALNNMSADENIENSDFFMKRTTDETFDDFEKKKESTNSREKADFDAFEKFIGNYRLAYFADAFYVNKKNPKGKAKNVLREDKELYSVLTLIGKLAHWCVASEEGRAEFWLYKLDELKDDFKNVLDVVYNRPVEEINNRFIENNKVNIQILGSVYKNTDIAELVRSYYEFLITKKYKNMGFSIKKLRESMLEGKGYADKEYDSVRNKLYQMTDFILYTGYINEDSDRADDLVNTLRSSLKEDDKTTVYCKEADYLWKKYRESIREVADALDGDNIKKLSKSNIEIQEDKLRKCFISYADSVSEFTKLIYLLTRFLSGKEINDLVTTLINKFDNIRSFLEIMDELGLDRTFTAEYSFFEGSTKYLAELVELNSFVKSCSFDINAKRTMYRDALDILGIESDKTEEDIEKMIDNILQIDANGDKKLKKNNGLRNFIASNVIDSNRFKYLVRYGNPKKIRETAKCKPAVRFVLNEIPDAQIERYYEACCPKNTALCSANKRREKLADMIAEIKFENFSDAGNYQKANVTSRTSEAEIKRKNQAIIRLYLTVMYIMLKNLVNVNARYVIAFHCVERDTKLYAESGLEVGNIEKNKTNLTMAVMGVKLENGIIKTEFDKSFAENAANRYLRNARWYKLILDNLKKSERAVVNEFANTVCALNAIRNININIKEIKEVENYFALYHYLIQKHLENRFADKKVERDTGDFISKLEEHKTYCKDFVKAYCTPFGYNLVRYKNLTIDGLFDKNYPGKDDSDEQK
Briefly: crRNA (strand 1, pre-loaded); Mg2+; 40 mM Tris-HCl pH 7.5, 150 mM NaCl, 6 mM MgCl2, 1 mM DTT, 0.1% Tween-20, 0.2 mg/ml BSA; 25 C; 10 min per concentration, then washed. The settings on record: tags: His6-TwinStrep-SUMO cleaved; N-terminal SNAP kept (SNAP-Surface 488); label: 3' end held by stalled T7 RNA polymerase.
Usually Kd stands for a measure of binding affinity in units of concentration. Consider B1, for which the affinity, expressed as Kd, was 22.6 ± 2.9 nM.

Consider B2, for which binding was put at a Kd of 27.6 ± 2.9 nM.

Consider B3, for which the affinity, expressed as Kd, was 41 ± 2.4 nM.

B4 displayed a Kd of 29.5 ± 3.1 nM.

The molecule B5 displayed a Kd of 31 ± 9 nM. Next, B6: 47 ± 11.5 nM; B7: 61 ± 12 nM.

B8: the affinity, expressed as Kd, was 106 ± 34 nM.

As for B9, binding was characterised by a dissociation constant (Kd) of 70 ± 25 nM. Consider B10, for which the Kd came out at 95 ± 14.5 nM.

B11 came in with a Kd of 39 ± 5 nM. Next, B12: 27.1 ± 7.05 nM. Next, B13: ~102 nM; B14: 5.71 ± 0.47 nM; B15: 20.3 ± 2.65 nM. Next, B16: 73.5 ± 36 nM; B17: 10.3 ± 1.2 nM; B18: 100 ± 37.5 nM.

In the case of B19, the Kd stood at 4.96 ± 0.355 nM. Next, B20: 58 ± 9.5 nM; B21: 36.5 ± 6 nM; B22: 77.5 ± 13.5 nM. With B23, binding was characterised by a dissociation constant (Kd) of 88 ± 17.5 nM. Next, B24: 30.2 ± 3.35 nM. Next, B25: 7.65 ± 1.2 nM; B26: 49.5 ± 17.5 nM; B27: 29 ± 6 nM. Next, B28: 32.6 ± 5.4 nM; B29: 76.5 ± 12 nM.

Molecule B30 had a Kd of 77.5 ± 10 nM.
